Values quoted from earlier work, collected in article PMC8542695.

Tests used:
p53 (Homo sapiens) = p53 (Homo sapiens) (UniProt P04637)
[1] = target: annexin A2 (ANXA2) (Homo sapiens) (UniProt P07355)
[2] = target: non-muscle myosin 2A (NM2A) (Homo sapiens) (UniProt P35579)
Chain of non-muscle myosin 2A (NM2A) (Homo sapiens) (P35579 2-1960): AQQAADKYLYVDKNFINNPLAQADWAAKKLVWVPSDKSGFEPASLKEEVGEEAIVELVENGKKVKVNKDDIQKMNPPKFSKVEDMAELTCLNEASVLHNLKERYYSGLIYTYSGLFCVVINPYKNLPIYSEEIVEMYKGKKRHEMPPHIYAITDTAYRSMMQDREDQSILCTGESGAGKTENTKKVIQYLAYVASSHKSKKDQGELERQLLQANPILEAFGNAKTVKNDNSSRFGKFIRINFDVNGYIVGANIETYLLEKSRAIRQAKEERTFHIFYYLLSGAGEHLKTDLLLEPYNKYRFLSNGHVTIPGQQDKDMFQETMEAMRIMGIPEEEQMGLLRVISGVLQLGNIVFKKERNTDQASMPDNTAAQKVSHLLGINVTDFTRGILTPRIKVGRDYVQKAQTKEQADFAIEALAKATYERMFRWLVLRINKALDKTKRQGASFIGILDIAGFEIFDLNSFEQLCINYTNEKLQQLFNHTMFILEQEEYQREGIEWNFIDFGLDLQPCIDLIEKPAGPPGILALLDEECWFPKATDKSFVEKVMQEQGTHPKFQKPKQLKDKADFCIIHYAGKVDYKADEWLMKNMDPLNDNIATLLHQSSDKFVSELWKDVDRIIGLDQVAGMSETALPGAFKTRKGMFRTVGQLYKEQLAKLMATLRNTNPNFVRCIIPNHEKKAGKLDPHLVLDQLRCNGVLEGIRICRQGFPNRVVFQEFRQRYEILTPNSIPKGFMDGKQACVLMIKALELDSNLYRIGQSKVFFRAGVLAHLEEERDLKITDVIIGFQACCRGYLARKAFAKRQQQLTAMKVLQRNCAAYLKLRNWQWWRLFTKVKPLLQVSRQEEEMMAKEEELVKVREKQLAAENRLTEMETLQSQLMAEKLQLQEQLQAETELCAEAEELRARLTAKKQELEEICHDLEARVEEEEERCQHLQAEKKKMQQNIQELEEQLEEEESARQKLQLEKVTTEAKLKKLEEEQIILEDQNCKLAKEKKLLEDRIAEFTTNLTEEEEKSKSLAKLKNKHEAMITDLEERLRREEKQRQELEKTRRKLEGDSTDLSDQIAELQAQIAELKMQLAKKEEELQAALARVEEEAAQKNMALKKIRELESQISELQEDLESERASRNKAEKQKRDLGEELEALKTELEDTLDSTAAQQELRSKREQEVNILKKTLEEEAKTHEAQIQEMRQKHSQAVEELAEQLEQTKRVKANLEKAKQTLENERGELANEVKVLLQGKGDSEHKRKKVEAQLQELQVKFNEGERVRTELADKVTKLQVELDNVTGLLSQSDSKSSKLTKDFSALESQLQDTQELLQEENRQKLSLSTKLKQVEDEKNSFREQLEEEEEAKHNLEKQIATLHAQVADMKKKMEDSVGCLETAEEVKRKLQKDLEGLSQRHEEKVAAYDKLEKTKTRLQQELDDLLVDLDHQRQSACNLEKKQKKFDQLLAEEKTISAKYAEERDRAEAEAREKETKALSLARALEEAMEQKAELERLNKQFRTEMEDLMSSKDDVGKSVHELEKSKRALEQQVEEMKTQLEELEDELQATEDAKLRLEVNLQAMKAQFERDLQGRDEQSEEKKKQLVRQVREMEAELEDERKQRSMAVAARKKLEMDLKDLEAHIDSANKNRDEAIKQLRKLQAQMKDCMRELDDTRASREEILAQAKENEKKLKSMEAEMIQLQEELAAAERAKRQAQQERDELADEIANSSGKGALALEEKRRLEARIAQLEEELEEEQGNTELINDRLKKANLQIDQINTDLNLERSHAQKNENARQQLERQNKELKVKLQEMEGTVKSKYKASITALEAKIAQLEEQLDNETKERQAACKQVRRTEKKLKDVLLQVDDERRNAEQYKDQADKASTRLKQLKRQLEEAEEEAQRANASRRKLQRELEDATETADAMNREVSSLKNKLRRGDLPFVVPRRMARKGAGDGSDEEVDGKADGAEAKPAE

Chain of S100A4 (P26447 2-101): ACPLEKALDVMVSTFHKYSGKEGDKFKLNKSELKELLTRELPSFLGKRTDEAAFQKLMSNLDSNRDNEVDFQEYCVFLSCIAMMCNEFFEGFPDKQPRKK
Chain of p53 (Homo sapiens) (P04637 whole entry): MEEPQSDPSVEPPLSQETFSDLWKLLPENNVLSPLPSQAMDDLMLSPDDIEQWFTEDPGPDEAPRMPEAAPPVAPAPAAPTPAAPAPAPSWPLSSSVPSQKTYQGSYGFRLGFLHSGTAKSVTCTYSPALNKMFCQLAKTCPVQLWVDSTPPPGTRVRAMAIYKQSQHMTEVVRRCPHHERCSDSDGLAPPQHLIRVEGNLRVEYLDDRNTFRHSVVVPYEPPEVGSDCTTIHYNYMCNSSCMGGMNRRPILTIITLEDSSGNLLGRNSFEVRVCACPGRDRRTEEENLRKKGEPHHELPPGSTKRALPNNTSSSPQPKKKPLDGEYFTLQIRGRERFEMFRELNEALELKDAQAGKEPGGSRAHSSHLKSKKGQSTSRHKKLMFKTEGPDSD
Chain of annexin A2 (ANXA2) (Homo sapiens) (P07355 2-339): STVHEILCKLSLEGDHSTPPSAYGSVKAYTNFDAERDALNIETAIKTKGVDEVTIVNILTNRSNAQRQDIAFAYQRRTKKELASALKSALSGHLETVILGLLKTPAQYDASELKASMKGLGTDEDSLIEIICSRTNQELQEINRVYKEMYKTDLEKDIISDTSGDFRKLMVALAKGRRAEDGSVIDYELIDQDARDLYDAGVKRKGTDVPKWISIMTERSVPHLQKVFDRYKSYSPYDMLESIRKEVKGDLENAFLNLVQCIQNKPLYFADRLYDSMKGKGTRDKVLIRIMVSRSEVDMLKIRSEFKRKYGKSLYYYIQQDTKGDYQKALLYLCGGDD

Substance: S100A4 (from UniProt P26447)
- Kd (p53 (Homo sapiens)): 2000 nM
- Kd [1]: 2000 nM
- Kd [2]: < 1 nM
